Source: patent US20050020492A1 (MERCK, published 2005)
Where two headings read alike, the source gives them in different places. Values belong to the molecule of their own block, whether it stands above or below them. Positions of bridges follow the written chain, without caps; N, C: chain ends. Non-standard residues stand in square brackets, D forms with d. dCit = NC(=O)NCCC[C@@H](N)C(=O)O

What was measured:
human MCH-1R [1] = biological target: T1, human MCH-1R (human, UniProt Q99705 1-353); assay: SPA, total against non-specific binding (500 nM unlabeled hMCH)
T1 sequence (Q99705 whole entry): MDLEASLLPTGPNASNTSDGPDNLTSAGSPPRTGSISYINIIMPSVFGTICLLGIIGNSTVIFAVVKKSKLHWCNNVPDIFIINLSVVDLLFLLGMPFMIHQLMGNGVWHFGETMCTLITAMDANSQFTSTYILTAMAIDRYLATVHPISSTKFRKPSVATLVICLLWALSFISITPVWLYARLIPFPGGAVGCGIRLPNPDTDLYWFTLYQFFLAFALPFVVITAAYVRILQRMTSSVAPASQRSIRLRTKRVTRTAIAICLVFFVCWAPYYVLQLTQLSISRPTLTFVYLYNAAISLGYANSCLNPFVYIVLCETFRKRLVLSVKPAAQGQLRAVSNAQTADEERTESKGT

human MCH-2R [2] = biological target: T2, human MCH-2R (human, UniProt Q969V1 1-340); assay: as above
T2 sequence (Q969V1 whole entry): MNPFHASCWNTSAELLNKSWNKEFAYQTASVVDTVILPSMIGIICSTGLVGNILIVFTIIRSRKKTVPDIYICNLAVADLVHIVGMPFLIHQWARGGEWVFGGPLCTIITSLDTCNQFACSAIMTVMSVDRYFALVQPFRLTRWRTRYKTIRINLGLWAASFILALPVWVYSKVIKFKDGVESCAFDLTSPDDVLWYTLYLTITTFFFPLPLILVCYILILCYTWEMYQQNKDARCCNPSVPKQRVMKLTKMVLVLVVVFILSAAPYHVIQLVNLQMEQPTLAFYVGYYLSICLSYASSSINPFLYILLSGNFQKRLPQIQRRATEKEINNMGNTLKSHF

human MCH-2R [3] = biological target: T2, human MCH-2R; assay: SPA, displacement of [125I]-[Phe13,Tyr19]-hMCH, MCH-2R membranes
Protocol: (§1) After equilibrating at room temperature for 3 hours, the plates were read in a TopCount (Packard, Meriden, Conn.). IC₅₀ calculations were performed using Prism 3.0 (GraphPad. Software, San Diego, Calif.). The IC₅₀ values were measured in three different experiments.

human MCH-1R [4] = biological target: T1, human MCH-1R; assay: SPA, displacement of [125I]-[Phe13,Tyr19]-hMCH, CHO/MCH-1R membranes
Protocol: as §1

human MCH-1R [5] = biological target: T1, human MCH-1R; assay: ratio of the two SPA IC50s
Protocol: as §1

human MCH-1R [6] = biological target: T1, human MCH-1R; assay: cell-based or functional assay
human MCH-2R [7] = biological target: T2, human MCH-2R; assay: cell-based or functional assay
human MCH-1R [8] = biological target: T1, human MCH-1R; assay: cell-based or functional assay; remark: listed apart in the source
human MCH-1R [9] = biological target: T1, human MCH-1R; assay: ratio of the two SPA IC50s; remark: listed apart in the source
human MCH-1R [10] = biological target: T1, human MCH-1R; assay: SPA, displacement of [125I]-[Phe13,Tyr19]-hMCH, CHO/MCH-1R membranes; remark: listed apart in the source
Protocol: as §1

human MCH-1R [11] = biological target: T1, human MCH-1R; assay: cell-based or functional assay; remark: listed apart in the source
human MCH-2R [12] = biological target: T2, human MCH-2R; assay: cell-based or functional assay; remark: listed apart in the source
human MCH-1R [13] = biological target: T1, human MCH-1R; assay: SPA radioligand binding assay
Protocol: as §1

human MCH-2R [14] = biological target: T2, human MCH-2R; assay: SPA radioligand binding assay
Protocol: as §1

human MCH-2R [15] = biological target: T2, human MCH-2R; assay: SPA, displacement of [125I]-[Phe13,Tyr19]-hMCH, MCH-2R membranes; remark: listed apart in the source
Protocol: as §1

human MCH-2R [16] = biological target: T2, human MCH-2R; assay: cell-based or functional assay; remark: listed apart in the source
human MCH-1R [17] = biological target: T1, human MCH-1R; assay: SPA, displacement of [125I]-[Phe13,Tyr19]-hMCH, CHO/MCH-1R membranes
human MCH-1R [18] = biological target: T1, human MCH-1R; assay: cell-based or functional assay; remark: listed apart in the source
human MCH-2R [19] = biological target: T2, human MCH-2R; assay: cell-based or functional assay; remark: listed apart in the source

specific binding window (human MCH-1R [1]): > 6 ×
specific binding window (human MCH-2R [2]): 3 ×
Molecule: [^125I]-[Phe^13Tyr^19]-hMCH (peptide)

IC50 (human MCH-2R [3]): 3.3 µM
IC50 (human MCH-1R [4]): 0.0005 µM
Selectivity 2/1 (MCH-2R/MCH-1R IC50 ratio) (human MCH-1R [5]): 6600 ratio
Activation %, aequorin bioluminescence (human MCH-1R [6]): 120%
EC50, aequorin bioluminescence (human MCH-1R [6]): 0.055 µM
Selectivity 2/1 (MCH-2R/MCH-1R EC50 activity ratio) (human MCH-1R [6]): 150 ratio
Activation %, aequorin bioluminescence (human MCH-2R [7]): 20%
EC50, aequorin bioluminescence (human MCH-2R [7]): 8.4 µM
fold more selective as agonist for hMCH-1R than hMCH-2R (human MCH-1R [8]): ~150 fold
B1: SEQ. ID. NO. 29 (D-Arg^6, Asn^10 analog of Ac-hMCH(6-16)-NH2) (peptide)
peptide: XCMLNRVYRPC
HELM: PEPTIDE1{[ac].[dR].C.M.L.N.R.V.Y.R.P.C.[am]}$PEPTIDE1,PEPTIDE1,3:R3-12:R3$$$V2.0
SMILES: CSCC[C@@H]1NC(=O)[C@@H](NC(=O)[C@@H](CCCNC(=N)N)NC(C)=O)CSSC[C@@H](C(N)=O)NC(=O)[C@@H]2CCCN2C(=O)[C@H](CCCNC(=N)N)NC(=O)[C@H](Cc2ccc(O)cc2)NC(=O)[C@H](C(C)C)NC(=O)[C@H](CCCNC(=N)N)NC(=O)[C@H](CC(N)=O)NC(=O)[C@H](CC(C)C)NC1=O

IC50 (human MCH-2R [3]): 1.4 µM
IC50 (human MCH-1R [4]): 0.0061 µM
Selectivity 2/1 (MCH-2R/MCH-1R IC50 ratio) (human MCH-1R [5]): 230 ratio
Activation %, aequorin bioluminescence (human MCH-1R [6]): 74%
EC50, aequorin bioluminescence (human MCH-1R [6]): 2.3 µM
Activation %, aequorin bioluminescence (human MCH-2R [7]): 11%
EC50, aequorin bioluminescence (human MCH-2R [7]): > 10 µM
fold more selective as agonist for hMCH-1R than hMCH-2R (human MCH-1R [8]): ~150 fold
B2: SEQ. ID. NO. 30 (D-Arg^6, Gln^10 analog of Ac-hMCH(6-16)-NH2) (peptide)
peptide: XCMLQRVYRPC
HELM: PEPTIDE1{[ac].[dR].C.M.L.Q.R.V.Y.R.P.C.[am]}$PEPTIDE1,PEPTIDE1,3:R3-12:R3$$$V2.0
SMILES: CSCC[C@@H]1NC(=O)[C@@H](NC(=O)[C@@H](CCCNC(=N)N)NC(C)=O)CSSC[C@@H](C(N)=O)NC(=O)[C@@H]2CCCN2C(=O)[C@H](CCCNC(=N)N)NC(=O)[C@H](Cc2ccc(O)cc2)NC(=O)[C@H](C(C)C)NC(=O)[C@H](CCCNC(=N)N)NC(=O)[C@H](CCC(N)=O)NC(=O)[C@H](CC(C)C)NC1=O

IC50 (human MCH-1R [4]): 0.0032 µM
Activation %, aequorin bioluminescence (human MCH-1R [6]): 109%
EC50, aequorin bioluminescence (human MCH-1R [6]): 0.26 µM
Activation %, aequorin bioluminescence (human MCH-2R [7]): 17%
EC50, aequorin bioluminescence (human MCH-2R [7]): > 10 µM
fold more selective with respect to hMCH-2R (human MCH-1R [8]): ~50 fold
fold weaker agonist than the parent compound (human MCH-1R [8]): 5 fold
B3: SEQ. ID. NO. 33 (D-Arg^6, Asn^10, Ala^14 analog of Ac-hMCH(6-16)-NH2) (peptide)
peptide: XCMLNRVYAPC
HELM: PEPTIDE1{[ac].[dR].C.M.L.N.R.V.Y.A.P.C.[am]}$PEPTIDE1,PEPTIDE1,3:R3-12:R3$$$V2.0
SMILES: CSCC[C@@H]1NC(=O)[C@@H](NC(=O)[C@@H](CCCNC(=N)N)NC(C)=O)CSSC[C@@H](C(N)=O)NC(=O)[C@@H]2CCCN2C(=O)[C@H](C)NC(=O)[C@H](Cc2ccc(O)cc2)NC(=O)[C@H](C(C)C)NC(=O)[C@H](CCCNC(=N)N)NC(=O)[C@H](CC(N)=O)NC(=O)[C@H](CC(C)C)NC1=O

Selectivity 2/1 (MCH-2R/MCH-1R IC50 ratio) (human MCH-1R [9]): 500 ratio
IC50 (human MCH-1R [10]): 0.007 µM
Activation %, aequorin bioluminescence (human MCH-1R [11]): 92%
EC50, aequorin bioluminescence (human MCH-1R [11]): 0.61 µM
Selectivity 2/1 (MCH-2R/MCH-1R EC50 activity ratio) (human MCH-1R [11]): 5 ratio
Activation %, aequorin bioluminescence (human MCH-2R [12]): 47%
EC50, aequorin bioluminescence (human MCH-2R [12]): 3.1 µM
fold lower binding affinity than Ac-hMCH(6-16)-NH2 (human MCH-1R [13]): ~5 fold
IC50 (human MCH-2R [14]): > 3 µM
IC50 (human MCH-2R [15]): 3.5 µM
fold lower activity than Ac-hMCH(6-16)-NH2 (human MCH-1R [8]): ~30 fold
EC50 (human MCH-2R [16]): > 3 µM
B4: SEQ. ID. NO. 15 (Δ(X^6-Cys^7), Mpr^7 analog of Ac-hMCH(6-16)-NH2) (peptide)
peptide: XMLGRVYRPC
modifications: Ac-Arg^6 segment eliminated; Mpr, des-amino-cysteine (3-mercaptopropionic acid) at position 7 instead of Cys; C-terminal amide; disulfide ring

IC50 (human MCH-1R [17]): 0.0083 µM
Activation %, aequorin bioluminescence (human MCH-1R [18]): 110%
EC50, aequorin bioluminescence (human MCH-1R [18]): 1.46 µM
Activation %, aequorin bioluminescence (human MCH-2R [19]): 8%
EC50, aequorin bioluminescence (human MCH-2R [19]): > 10 µM
Molecule: Ac-[dCit]CMLNRVYRPC-NH2 (disulfide 2-11 (inferred)) [SEQ. ID. NO. 34 (D-Cit^6, Asn^10 analog of Ac-hMCH(6-16)-NH2)]
